Data as given in PMC3870659.

Target: integrin α4β7 on freshly isolated human primary B cells (human (endogenous in primary B cells)) (UniProt P13612)
Chain of UniProt P13612 (P13612 34-1032, chain 1 of 2): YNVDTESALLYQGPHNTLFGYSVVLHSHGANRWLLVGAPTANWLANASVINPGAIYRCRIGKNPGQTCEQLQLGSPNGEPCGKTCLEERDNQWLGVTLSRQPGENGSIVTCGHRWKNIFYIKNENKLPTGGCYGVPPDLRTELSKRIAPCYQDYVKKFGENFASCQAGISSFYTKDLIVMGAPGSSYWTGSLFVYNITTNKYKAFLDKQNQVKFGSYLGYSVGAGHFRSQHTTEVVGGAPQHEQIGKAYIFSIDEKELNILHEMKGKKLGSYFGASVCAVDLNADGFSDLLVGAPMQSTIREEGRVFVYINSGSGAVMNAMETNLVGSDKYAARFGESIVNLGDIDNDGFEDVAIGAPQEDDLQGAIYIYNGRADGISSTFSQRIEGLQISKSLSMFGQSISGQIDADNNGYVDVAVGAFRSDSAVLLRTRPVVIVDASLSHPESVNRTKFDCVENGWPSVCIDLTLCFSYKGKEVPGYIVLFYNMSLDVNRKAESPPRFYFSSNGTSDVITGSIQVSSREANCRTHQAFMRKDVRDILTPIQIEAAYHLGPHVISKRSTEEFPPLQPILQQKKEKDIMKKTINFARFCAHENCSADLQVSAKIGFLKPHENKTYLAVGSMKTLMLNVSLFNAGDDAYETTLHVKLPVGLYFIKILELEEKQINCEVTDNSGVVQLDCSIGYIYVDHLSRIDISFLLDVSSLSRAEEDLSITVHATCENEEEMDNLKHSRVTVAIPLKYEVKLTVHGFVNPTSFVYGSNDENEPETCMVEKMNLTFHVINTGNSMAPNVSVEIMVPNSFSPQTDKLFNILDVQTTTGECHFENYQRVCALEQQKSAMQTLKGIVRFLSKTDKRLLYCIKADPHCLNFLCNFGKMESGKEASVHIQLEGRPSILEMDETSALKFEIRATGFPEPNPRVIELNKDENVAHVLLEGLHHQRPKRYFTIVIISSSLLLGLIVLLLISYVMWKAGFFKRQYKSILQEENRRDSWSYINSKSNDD
Chain of UniProt P13612 (P26010 20-798, chain 2 of 2, further chain): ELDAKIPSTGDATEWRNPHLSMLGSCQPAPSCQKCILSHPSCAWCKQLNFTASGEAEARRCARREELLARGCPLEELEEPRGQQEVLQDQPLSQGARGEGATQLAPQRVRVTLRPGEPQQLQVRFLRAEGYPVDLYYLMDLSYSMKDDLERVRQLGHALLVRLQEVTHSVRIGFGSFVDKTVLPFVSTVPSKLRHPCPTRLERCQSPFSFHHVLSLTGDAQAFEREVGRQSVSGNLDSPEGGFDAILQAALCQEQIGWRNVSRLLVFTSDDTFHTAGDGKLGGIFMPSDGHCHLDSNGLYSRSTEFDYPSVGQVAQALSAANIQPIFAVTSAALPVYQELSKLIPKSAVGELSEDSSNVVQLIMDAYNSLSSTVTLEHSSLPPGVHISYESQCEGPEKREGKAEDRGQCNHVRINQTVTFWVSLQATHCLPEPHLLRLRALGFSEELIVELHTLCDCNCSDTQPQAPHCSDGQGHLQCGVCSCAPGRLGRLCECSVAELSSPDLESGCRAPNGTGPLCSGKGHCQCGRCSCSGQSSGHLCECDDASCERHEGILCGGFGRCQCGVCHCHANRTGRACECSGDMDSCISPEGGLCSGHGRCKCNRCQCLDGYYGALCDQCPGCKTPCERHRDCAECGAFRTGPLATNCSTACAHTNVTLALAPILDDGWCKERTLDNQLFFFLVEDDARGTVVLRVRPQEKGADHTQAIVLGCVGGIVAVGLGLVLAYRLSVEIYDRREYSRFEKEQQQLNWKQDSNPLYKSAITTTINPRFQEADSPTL

## R66M gp120 (HIV-1 envelope protein gp120 of the early viral isolate R66M, subtype A/C) (natural protein)
  FCRL4 mRNA (microarray) in anti-IgM + CpG stimulated B cells, 6 h with gp120: 8 fold
